# Laboratory results: the supplement of paper PMC12667976
# ± gives the standard error.
# B1: library; numbered along this chain (parent)
# chain: MATDAALRRLLRLHRTEIAVAVDSAFPLLHALADHDVVPEDKFQETLHLKEKEGCPQAFHALLSWLLTQDSTAILDFWRVLFKDYNLERYGRLQPILDSFPKDVDLSQPRKGRKPPAVPKALVPPPRLPTKRKASEEARAAAPAALTPRGTASPGSQLKAKPPKKPESSAEQQRLPLGNGIQTMSASVQRAVAMSSGDVPGARGAVEGILIQQVFESGGSKKCIQVGGEFYTPSKFEDSGSGKNKARSSSGPKPLVRAKGAQGAAPGGGEARLGQQGSVPAPLALPSDPQLHQKNEDECAVCRDGGELICCDGCPRAFHLACLSPPLREIPSGTWRCSSCLQATVQEVQPRAEEPRPQEPPVETPLPPGLRSAGEEVRGPPGEPLAGMDTTLVYKHLPAPPSAAPLPGLDSSALHPLLCVGPEGQQNLAPGARCGVCGDGTDVLRCTHCAAAFHWRCHFPAGTSRPGTGLRCRSCSGDVTPAPVEGVLAPSPARLAPGPAKDDTASHEPALHRDDLESLLSEHTFDGILQWAIQSMARPAAPFPS
# Variants of: B1
# Assay: AIRE transcriptional activation functional score (insulin promoter-GFP; nonsense median 0, synonymous median 1) (normalised score); higher = higher AIRE activity (more reporter activation)
# Details: with insulin promoter-GFP reporter in HEK293
# How it was run: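 The functional score compares variant enrichment between select and non-select populations after subtracting wild type. To obtain it, codon-optimized AIRE NNN-codon libraries spanning three regions were placed by Bxb1 recombinase into Flp-In T-REx HEK293 landing-pad cells with an insulin core promoter-GFP reporter. Cells with the top 10% GFP and unselected integrants were tile-sequenced after mCherry+, BFP− integrants had been sorted at day 7 and grown 7 more days. Only variants with 10 counts per million in non-select were kept, rescaled to nonsense median 0 and synonymous median 1, and averaged across biological replicates.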
row,Variant,AIRE transcriptional activation functional score
1,L285P,1.17 ± 0.45
2,L285K,0.713 ± 0.23
3,L285G,0.429 ± 0.3
4,D105F,0.419 ± 0.4
5,I533R,0.266 ± 0.065
6,L62G,-0.253 ± 0.25
7,D84W,1.68 ± 0.046
8,P286V,1.26 ± 0.079
9,A19I,-0.333 ± 0.57
10,A19E,0.513 ± 0.43
11,R465D,0.53 ± 0.072
12,A284T,0.876 ± 0.2
13,A493E,0.985 ± 0.1
14,A493H,1.46 ± 0.11
15,F318S,1.19 ± 0.21
16,P252F,0.977 ± 0.083
17,Q276M,1 ± 0.08
18,D41R,0.0782 ± 0.29
19,A399K,0.799 ± 0.062
20,P200H,1.08 ± 0.036
21,A160W,1.82 ± 0.051
22,P407V,1.23 ± 0.21
23,A142N,0.413 ± 0.58
24,A142S,0.968 ± 0.35

row,Variant,AIRE transcriptional activation functional score
1,A142D,1.05 ± 0.44
2,H14V,-0.238 ± 0.39
3,P176E,0.297 ± 0.71
4,P176I,1.65 ± 0.34
5,I181M,0.958 ± 0.058
6,C311T,0.998 ± 0.14
7,C311D,0.772 ± 0.27
8,G462D,0.731 ± 0.1
9,S412F,1.37 ± 0.16
10,S412I,0.868 ± 0.15
11,T524L,-0.065 ± 0.23
12,D439T,1.03 ± 0.33
13,W78H,0.363 ± 0.52
14,C446S,-0.132 ± 0.15
15,A138R,1.19 ± 0.23
16,S153A,0.85 ± 0.41
17,A496T,0.81 ± 0.34
18,P499Q,1.15 ± 0.18
19,L520F,0.794 ± 0.35
20,H319M,0.921 ± 0.02
21,L409H,0.62 ± 0.44
22,S195E,0.862 ± 0.12
23,G469Q,0.807 ± 0.11
24,G469H,1.19 ± 0.29

row,Variant,AIRE transcriptional activation functional score
1,D4W,0.262 ± 0.053
2,C434N,0.201 ± 0.12
3,S411I,1.3 ± 0.15
4,G440S,1.16 ± 0.4
5,Q94E,0.0511 ± 0.28
6,Q94K,1.21 ± 0.32
7,V214H,0.137 ± 0.25
8,R139Q,1.35 ± 0.3
9,L370E,-0.238 ± 0.062
10,L370D,0.434 ± 0.36
11,S99V,0.813 ± 0.53
12,S99F,0.636 ± 0.18
13,A186H,0.849 ± 0.093
14,L13D,-0.291 ± 1.1
15,A140T,1.12 ± 0.5
16,D389T,1.23 ± 0.044
17,R174A,0.803 ± 0.46
18,P539M,0.297 ± 0.044
19,A300V,1.09 ± 0.29
20,A300K,1.08 ± 0.11
21,P492M,1.76 ± 0.068
22,G197I,1.09 ± 0.18
23,S71G,0.809 ± 0.75
24,K50F,-0.139 ± 0.12

row,Variant,AIRE transcriptional activation functional score
1,K50L,0.404 ± 0.62
2,C322P,1.25 ± 0.21
3,C322L,0.951 ± 0.12
4,L11M,0.0247 ± 0.081
5,P148Q,1.14 ± 0.68
6,K131G,-0.226 ± 0.29
7,W455R,0.879 ± 0.084
8,P481N,0.00715 ± 0.27
9,G498L,1.11 ± 0.17
10,R445P,0.738 ± 0.067
11,L323F,1.5 ± 0.33
12,P166N,1.41 ± 0.1
13,P166G,1.61 ± 0.69
14,P166W,-0.356 ± 0.47
15,A386R,1.1 ± 0.29
16,K294F,0.447 ± 0.21
17,K294T,0.822 ± 0.31
18,L210C,0.0167 ± 0.071
19,L210S,0.327 ± 0.13
20,G178K,0.788 ± 0.31
21,A205M,-0.0564 ± 0.17
22,A205D,0.746 ± 0.27
23,A202S,0.848 ± 0.25
24,A202V,1.11 ± 0.082

row,Variant,AIRE transcriptional activation functional score
1,R190I,0.118 ± 0.15
2,R79M,-0.695 ± 0.077
3,P325C,1.04 ± 0.35
4,P325R,0.876 ± 0.29
5,L511I,0.739 ± 0.12
6,K221C,0.921 ± 0.048
7,S249N,0.548 ± 0.067
8,P115W,0.278 ± 0.1
9,S168T,1.06 ± 0.4
10,K395S,0.558 ± 0.28
11,F543C,0.138 ± 0.091
12,L283A,1.02 ± 0.32
13,G369R,0.772 ± 0.1
14,P350S,0.947 ± 0.17
15,G306Q,1.14 ± 0.16
16,P401S,1.25 ± 0.26
17,P401F,0.595 ± 0.05
18,P401I,0.809 ± 0.28
19,G260T,1.26 ± 0.17
20,G112Y,0.893 ± 0.066
21,R316I,1.26 ± 0.29
22,T344M,1.37 ± 0.031
23,P544G,1.38 ± 0.087
24,L93H,-0.023 ± 0.32

row,Variant,AIRE transcriptional activation functional score
1,G218I,1.14 ± 0.14
2,H30L,0.0371 ± 0.59
3,Q157A,1.13 ± 0.74
4,A432M,0.0975 ± 0.032
5,A432C,1.2 ± 0.14
6,A432Q,0.748 ± 0.18
7,R456H,1.2 ± 0.076
8,I209G,0.579 ± 0.18
9,Q189F,-0.181 ± 0.14
10,E51P,-0.179 ± 0.61
11,S196T,0.82 ± 0.29
12,G467H,1.42 ± 0.22
13,R12M,0.457 ± 0.063
14,Q426K,1.16 ± 0.051
15,A461G,1.29 ± 0.17
16,A461V,1.17 ± 0.24
17,A461R,0.878 ± 0.14
18,S135Q,1.13 ± 0.11
19,P368A,1.2 ± 0.26
20,P368E,0.965 ± 0.12
21,R127S,0.869 ± 0.22
22,V484G,1.18 ± 0.29
23,S64R,-0.473 ± 0.57
24,S64P,0.795 ± 0.47

row,Variant,AIRE transcriptional activation functional score
1,L67N,0.265 ± 0.11
2,G374Y,0.519 ± 0.61
3,L10D,0.416 ± 0.19
4,L10M,0.438 ± 0.057
5,L10S,-0.035 ± 0.35
6,T130G,1.13 ± 0.6
7,R494V,1.27 ± 0.043
8,R494Y,0.846 ± 0.36
9,E167Q,0.862 ± 0.17
10,P143K,0.307 ± 0.16
11,P361Q,1.18 ± 0.19
12,V118T,0.667 ± 0.45
13,P400S,0.846 ± 0.29
14,A540V,1.11 ± 0.14
15,A540Q,0.739 ± 0.11
16,A117G,1.22 ± 0.26
17,A117D,0.179 ± 0.29
18,H507V,1.12 ± 0.22
19,H507M,1.47 ± 0.11
20,S402I,0.78 ± 0.15
21,L417Q,1.07 ± 0.16
22,L417T,0.966 ± 0.21
23,C55L,-0.0993 ± 1.2
